The data set in a line: protease stability score; higher = more stable; yeast display proteolysis, trypsin and chymotrypsin.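 Further: relative to predicted unfolded state with 0 unfolded-like and 1 meaning tenfold more protease.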
The sequence “SEDEREAIRFLELWVRESRTGDEDSTDRLADPHTRVEFENHHSVGREHAVTFLIHLRTHHFEIHEVQVFNGRIEMRLHVDGIFNGRRYRSDVLLVVLKIDGQWLLHSIRFH” registered a protease stability score of 1.52.

In the case of “SEDEREFEEFVRFFFKMMVTGDEDDLIRLLDPHAKFEINGKILHGWRHLLEEIREMGIKHWKIRDIKVQGEKVENELELEVGEKRFHIRLIATKVNGKWHVKEFSIHEI”, the protease stability score worked out at 2.29.

In the case of “SEDEREFLDVLKWLIEAVATGDERIWKELVDPHVRLEVGDKHRHGRETFEKTMRHLRVKEVRVKLHDFDFIGEKMTADVKLEIHLIVGDKERDIRLDIIVHSRKIDGKWHVESIHIR”, the protease stability score was found to be 1.51.

“SEDERELKHWQTIALRLWKTGDFKSELENLDPHARLHINGVHIIGRERMKEFLERIKNLRVEHLHDEHVHIQGDKITLHGHMDVIINGQRTEVDYEFILLKVNGRWLDHSIEMR” came in with a protease stability score of 1.1.

“SEDERFWKKALDDLLDTIRTGDEHKFREMMDPNVRVHIGDKHFHGREQASEQVVRLGVDHIELRRVDFQGDYLEIHGHLRVNGRETRIHFVLLKIDGRWVVKEVRQE” yielded a protease stability score of 2.21.

In turn, “SEDERFWVERLEEVLRAILTGDEDRIRELADPDVRVRYGDKELHGWKDLHEFMEFFKNVRINVRHVRNQGDKQEVDSEFTFEGRRHETELRLVVINGRVRHIEIIIR” displayed a protease stability score of 1.41.

Turning to “SEDERLALKMAEVIMHHLSTGDERILESFFDPNVQFIYGDKTNHGMEETLKFWEHIRIEVKSFTWKHITHVDGRLEMHTRSRELFIYGEFKEDRETRVHIIIDKVDGKWNHHSVRFR”, the protease stability score came to 0.06.

“SEDERLAREVIEILHNIMHTGDEHLLDEMLDPNAKVHFDGKDFHGMDVWIKFLIEIRVDSIHVRRVHSINGVLHVDSELDGTINGKKDIRRTRIIMEKVDGRWRVTEVRYV” showed a protease stability score of 1.41.

Turning to “SEDERLLREAVEELIHSWETGDFDHVLRMFDPDVRLHFEGRHTHGREVYEQQLRFLWERFKNVRITVEYKHVEVINGKAIVHGKLLLIIGDKTVELTNEIYVRKINGKWLSEEIRIK”, the protease stability score turned out to be 1.44.

“SEDERLMKKLWEDLIRDLITGDEDSMKRLADPNVLVEFENHKEHGRDLFSHLMFHARIKRIHTHEVEIQGDKAVYNVRIDGEINGQRHDYEREIYSFKVNGQWFIERVIIK” showed a protease stability score of 1.4.

Sequence “SEDERLVRHALNELLHHIETGDEERLIKLIDPNYRISINGQELHGWEEYVRLIREWRIRRFRVKDVDVQGDKANLDVRTHGDIDGQHHDFTIKIIATKINGRWINEEIIVE” had a protease stability score of 2.4.

Sequence “SEDERQAEEASEQFLRSVETGDFDELSRLFDPDMKVVFNGKELHGRETYIRLERERRRDLGIKHVKVRVKDFRIINGRLHLHTELEFNVGDKSFTHESRYTWEKVNGRWVIRSVDID” showed a protease stability score of 2.15.

For the sequence “SEDERQSEHMNRLIFESLETGDFHKLMRLMDPHARAVVDGREVHGMELLEEILKRIKDELGVTRIRTRIRTERTQGNKADNITEYEIGDKSFTVIIHNQKIDGRWVIHEVRFE”, the protease stability score was 1.24.

Regarding “SEDERRFREALRIWFQLVRTGDEEELKHFFDPNVRIHIGDKTFHGMELVLRQIVEEAREIRVRSVTIHELDRQGEWIHMDVRIDEEINGRRIHHSVEIIALKINGKWFFHSIIIR”, the protease stability score worked out at 1.4.

The sequence “SEDERVAEELLRLLSEYLKTGDEQIVTELLDPHTKMIIDGQTHIGMDVWQMLRKHIRVKNSDVHDVKFVDGRMHLDMRVHGHVNGVDVTRRLHVHTHKINGRWHIKEIHIE” had a protease stability score of 1.46.

For “SEDERVAFELVVIWSEALITGDEHTSIELLDPNTRIIFNGRDRHGRTFLQEWMKQLRVERIRIHIHHINLQGDKLKVFSELRFVGNVDGVRDEIKTEVVVFLDKIDGRWIVSHIDVH”, the protease stability score is 2.22.

Take “SEDERWLELLSRLLIEATRTGDWRELRHMLDPNVQLSFDGVQLHGRETIIEFLRHEERRLGVKHIDLHDRRIEYFDGRVILESELIIHYGDKEHRSEVRVYANKVNGRWFIEHIEIG”: the protease stability score was 2.13.

Sequence “SEDERYAEIADRIVRHSQETGDETDHMRMMDPDVRIEIGDKRYHGRELEHKLLKIWGVTRIEYDVRSIEVQGEKVRIDGVINFNGVELKIILYVLKFNGKWSYTKVEIQ” displayed a protease stability score of 1.84.

On to “SEDESAARHVIERMSHNLMTGDEEDLSDQFDPHVRVDINGVEIIGREELLRWLREWLRHAGVSKFNVHIIPREIRLIGDFMEINGELRMNYNGKEERTETRIIVFKFNGKWSIERMRIH”, for which the protease stability score was 1.72.

For the origin of these results see the NTF2 design screens of Basanta et al. (2020).
